We go through 84 variants from the RNAGym collection of RNA variant scans (doi:10.1093/molbev/msab373).

The chains are these.
B1: Azoarcus group I ribozyme (parent)
chain: GUGCCUUGCGCCGGGAAACCACGCAAGGGAUGGUGUCAAAUUCGGCGAAACCUAAGCGCCCGCCCGGGCGUAUGGCAACGCCGAGCCAAGCUUCGGCGCCUGCGCCGAUGAAGGUGUAGAGACUAGACGGCACCCACCUAAGGCAAACGCUAUGGUGAAGGCAUAGUCCAGGGAGUGGCGAAAGUCACACAAACCGG

In this data set the parent is B1. Kind of data set: reverse-splicing fitness (ratio to wild type); higher = more active; in vitro selection; Mg2+ level not given. In short, it runs like this: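 An in vitro group I ribozyme library with randomized positions was T7-transcribed and gel-purified. In triplicate, 10 pmol RNA in EPPS pH 7.5 was reacted with 50 pmoles of a 30-nt RNA substrate for 1 h at 37 °C across several added MgCl2 levels (1–48 mM), then stopped with EDTA. Products were reverse transcribed from a substrate-complementary primer, PCR-amplified and sequenced (HiSeq 4000). Fitness is a variant's read proportion after selection over that before, normalised to wild type.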
For C82G A111C A120U A145U C150A C169A U176G, the reverse-splicing fitness was determined as 0.00195.
On to C82A A145G C150U C169G U176G, for which the reverse-splicing fitness was 0.00547.
For A111G A120U A145G C169A U176G the value was 0.0013; for A111G A120C C150U C169U, 0.161; for C82A A145G U176A, 0.387.
The same measure for C82G A111C A120U A145C C150U: 0.0115; for C82U A111C C150A C169G U176C: 0.0236.
A111G A120C A145U C150U C169A U176G: the reverse-splicing fitness worked out at 0.00393.
For A111C A120C C150U C169A U176A the value was 0.0172; for C82U A120U A145G C150A C169G U176C, 0.00372; for C82U A111C A145U C150A C169A, 0.00884.
The same measure for C82A A111U A120G C150A C169U: 0.00869.
The same measure for C82A A120C A145U C150U C169A: 0.00998; for A145C C150G C169U U176G: 0.00549; for C82G A111U A120U A145G C150G U176G: 0.00462.
For C82G A111U A120G A145C C150A C169G U176G, the reverse-splicing fitness was found to be 0.00516.
Regarding C82G A111U A145G C150A C169U U176C, the reverse-splicing fitness was 0.0149.
The same measure for A111U A120C A145G C150A U176C: 0.0785; for C82A A120U A145U C169A U176C: 0.00182.
For A111C A120U C169U U176A the value was 0.0143.
For C82A A120U A145C C169G the value was 0.0041; for A111G A120G C150G C169A U176A, 0.00862; for C82A A120G A145C C150U C169G U176A, 0.0208.
For C82G A111C A145U C150A C169G U176G, the reverse-splicing fitness was 0.0081.
The same measure for C82G A111U A120U A145G C150U C169A U176C: 0.00451; for C82A A111U C150U C169G U176A: 0.0151; for C82A A111C A120C A145G C150U C169G U176C: 0.0166.
For the variant A120G A145G C150A C169G, the reverse-splicing fitness came out at 0.141.
For A120G A145G C150A C169U, the reverse-splicing fitness was found to be 0.107.
For A111G A120G A145C C150U C169G U176G the value was 0.00498; for C82A A111C A120G A145C C169U, 0.00846; for C82A A111G A120U, 0.0351.
For C82U A111C A120G C150G C169A U176A the value was 0.0104.
The same measure for A145G C150G C169G U176G: 0.00608.
For the variant A120C A145U U176C, the reverse-splicing fitness turned out to be 0.7.
As to C82A A111G A120G A145C C150U C169G U176A, the reverse-splicing fitness was determined as 0.0242.
For C82A A111U A120G A145C C150U C169A U176C the value was 0.00677; for A145U C169G U176G, 0.00761; for C82U A111G A120U A145G C150G U176G, 0.00276.
The same measure for C82G A120C C150A C169U U176G: 0.00663; for C82A A111G A120U A145G C150U C169A U176C: 0.0045; for C82U A111C A145U C150U C169A U176C: 0.011.
For C82A A111C A120G C150U C169G U176C, the reverse-splicing fitness was found to be 0.0169.
For C82A A111C A120C A145G U176C the value was 0.0274; for C82U A120C A145C C150G C169G U176A, 0.00773.
For C82G A111U A120C A145C C150U C169U U176C the value was 0.0118; for C82U A111G A120C A145U C150A C169G, 0.00798.
The same measure for A111U C150G C169G U176C: 0.00465; for C82G A111G A145U C150A C169U: 0.00982.
With C82G A111U A120C A145U C150G U176G, the reverse-splicing fitness was found to be 0.00406.
Turning to C82U A111U A120G C150A C169A U176C, the reverse-splicing fitness came to 0.0173.
The same measure for C82U A111G A120C C150A C169G U176A: 0.0237; for C82G A111U A120G A145G C150G C169G U176G: 0.00621; for C82A A120C A145U C150A U176C: 0.0233.
On to A120G A145C C150U U176C, for which the reverse-splicing fitness turned out to be 0.0938.
The same measure for C82G A111C A120U A145U C150G C169G U176C: 0.00317; for C82A A120G A145G C150U C169A U176G: 0.00535.
The same measure for C82G A111G A145G C169A U176C: 0.0235.
For A120G A145U C150U the value was 0.384.
C82U A111C A145G U176G: the reverse-splicing fitness was determined as 0.0201.
The same measure for A111U A120U C150U U176A: 0.125.
The same measure for C82G A111G A120G A145U C169A U176A: 0.0151; for A111C A120U A145C C150A U176A: 0.016.
The same measure for C82G A111G A120C A145C C150G C169U: 0.00968; for C82U A111U A120G A145C U176A: 0.00965; for C82U A111C A120U A145C C150A C169G: 0.00233.
On to C82G A111C A120U A145G C150U C169G, for which the reverse-splicing fitness came out at 0.00657.
In the case of C82U A111U A120C A145C C150A U176C, the reverse-splicing fitness was determined as 0.00753.
A111U A120C C150G U176G: the reverse-splicing fitness worked out at 0.00366.
As to C82A A111C A120C C150U C169G U176G, the reverse-splicing fitness is 0.00721.
The same measure for C82A A120C C150G C169G U176G: 0.00605; for C82U A111U A145C C150G C169U U176A: 0.00804; for A111U C150U C169U U176C: 0.0237.
Take C82G A111G A120C A145U C150G U176G: the reverse-splicing fitness turned out to be 0.00435.
In the case of C82A A111G A145U U176C, the reverse-splicing fitness worked out at 0.249.
For C82G A120C A145G C150G C169U U176G, the reverse-splicing fitness was determined as 0.00789.
As to C82G A111C A120U A145U C169A U176G, the reverse-splicing fitness was 0.00195.
For A111U A120C A145C C150G C169A U176A the value was 0.00803; for C82A A111C A120G A145U C150U C169G U176C, 0.014.
In the case of C82A A111U A120U C150U C169G, the reverse-splicing fitness amounted to 0.00623.
For C82A A120C A145C C150U C169A U176G the value was 0.00541; for A111U A120C A145G C150U, 0.495; for C82G A120C C150G C169G U176G, 0.00538.
As for C82U A111U A120G A145C C150A C169U U176G, the reverse-splicing fitness turned out to be 0.00474.
